± gives the uncertainty stated by the source.
B1: Chromodomain-helicase-DNA-binding protein 4, residues 444 to 496; numbered along this chain, Q14839 (parent)
chain: EDDHHMEFCRVCKDGGELLCCDTCPSSYHIHCLNPPLPEIPNGEWLCPRCTCP

Variants of: B1
Assay: abundance fitness (aPCA) (normalised: wild type 0, dead -1); higher = more abundant; growth selection in yeast, the domain comes from the species named
Settings: Homo sapiens

Question: With S26N as the variant, how does the abundance fitness read?
Answer: -0.073 ± 0.08

Question: Which abundance fitness does the source give for S26C here?
Answer: -0.05 ± 0.045

Question: For Y28V, which abundance fitness is on record?
Answer: -0.471 ± 0.076

Question: Which abundance fitness does the source give for Y28S here?
Answer: -0.566 ± 0.057

Question: With Y28N as the variant, how does the abundance fitness read?
Answer: -0.528 ± 0.045

Question: Which abundance fitness does the source give for Y28C here?
Answer: -0.639 ± 0.099

Question: Which abundance fitness does the source give for Y28F here?
Answer: 0.015 ± 0.042

Question: With Y28P as the variant, how does the abundance fitness read?
Answer: -0.667 ± 0.062

Question: For Y28A, which abundance fitness is on record?
Answer: -0.574 ± 0.079

Question: Which abundance fitness does the source give for Y28W here?
Answer: -0.259 ± 0.053

Question: With Y28Q as the variant, how does the abundance fitness read?
Answer: -0.657 ± 0.073

Question: With R10Q as the variant, how does the abundance fitness read?
Answer: 0.086 ± 0.066

Question: Which abundance fitness does the source give for R10I here?
Answer: -0.014 ± 0.056

Question: With R10N as the variant, how does the abundance fitness read?
Answer: 0.003 ± 0.044

Question: Which abundance fitness does the source give for R10E here?
Answer: -0.07 ± 0.09

Question: For R10W, which abundance fitness is on record?
Answer: 0.122 ± 0.088

Question: For R10C, which abundance fitness is on record?
Answer: 0.003 ± 0.077

Question: With R10A as the variant, how does the abundance fitness read?
Answer: -0.17 ± 0.042

Question: For P38S, which abundance fitness is on record?
Answer: -0.075 ± 0.045

Question: Which abundance fitness does the source give for P38D here?
Answer: -0.031 ± 0.064

Question: For P38L, which abundance fitness is on record?
Answer: -0.115 ± 0.046

Question: Which abundance fitness does the source give for F8A here?
Answer: -0.103 ± 0.061

Question: For F8G, which abundance fitness is on record?
Answer: 0.086 ± 0.071

Question: Which abundance fitness does the source give for F8H here?
Answer: -0.249 ± 0.043

Question: For F8D, which abundance fitness is on record?
Answer: -0.166 ± 0.06

Question: Which abundance fitness does the source give for F8N here?
Answer: -0.044 ± 0.069

Question: Which abundance fitness does the source give for F8T here?
Answer: -0.091 ± 0.055

Question: Which abundance fitness does the source give for E1T here?
Answer: -0.221 ± 0.19

Question: For E1R, which abundance fitness is on record?
Answer: -0.625 ± 0.28

Question: Which abundance fitness does the source give for E1G here?
Answer: -0.289 ± 0.046

Question: Which abundance fitness does the source give for D14L here?
Answer: 0.023 ± 0.04

Question: Which abundance fitness does the source give for D14G here?
Answer: 0.152 ± 0.073

Question: For D14I, which abundance fitness is on record?
Answer: -0.196 ± 0.055

Question: With D14Q as the variant, how does the abundance fitness read?
Answer: 0.209 ± 0.047

Question: For D14K, which abundance fitness is on record?
Answer: 0.074 ± 0.063

Question: For D14V, which abundance fitness is on record?
Answer: -0.089 ± 0.053

Question: Which abundance fitness does the source give for D14M here?
Answer: -0.139 ± 0.054

Question: With D14P as the variant, how does the abundance fitness read?
Answer: -1.02 ± 0.094

Question: Which abundance fitness does the source give for D14W here?
Answer: -0.418 ± 0.063

Question: For C9K, which abundance fitness is on record?
Answer: -0.54 ± 0.051

Question: With C9P as the variant, how does the abundance fitness read?
Answer: -0.797 ± 0.052

Question: For C9A, which abundance fitness is on record?
Answer: -0.777 ± 0.11

Question: With C9S as the variant, how does the abundance fitness read?
Answer: -0.849 ± 0.068

Question: For E17K, which abundance fitness is on record?
Answer: 0.117 ± 0.066

Question: With E17G as the variant, how does the abundance fitness read?
Answer: -0.289 ± 0.064

Question: Which abundance fitness does the source give for E17V here?
Answer: -0.215 ± 0.071

Question: Which abundance fitness does the source give for E17M here?
Answer: -0.098 ± 0.06

Question: For E17N, which abundance fitness is on record?
Answer: -0.077 ± 0.062

Question: For E17I, which abundance fitness is on record?
Answer: -0.206 ± 0.06

Question: Which abundance fitness does the source give for E17Y here?
Answer: -0.644 ± 0.06

Question: With E17H as the variant, how does the abundance fitness read?
Answer: -0.906 ± 0.064

Question: For C47N, which abundance fitness is on record?
Answer: -0.559 ± 0.087

Question: For C47I, which abundance fitness is on record?
Answer: -0.697 ± 0.082

Question: With C47F as the variant, how does the abundance fitness read?
Answer: -0.803 ± 0.055

Question: For C47S, which abundance fitness is on record?
Answer: -0.598 ± 0.056

Question: For C47T, which abundance fitness is on record?
Answer: -0.732 ± 0.063

Question: For C24W, which abundance fitness is on record?
Answer: -0.905 ± 0.11

Question: Which abundance fitness does the source give for C24G here?
Answer: -0.894 ± 0.073

Question: For C24I, which abundance fitness is on record?
Answer: -0.706 ± 0.061

Question: Which abundance fitness does the source give for C24T here?
Answer: -0.862 ± 0.079

Question: With C24R as the variant, how does the abundance fitness read?
Answer: -0.629 ± 0.061

Question: With L33F as the variant, how does the abundance fitness read?
Answer: -0.373 ± 0.048

Question: Which abundance fitness does the source give for L33Q here?
Answer: -0.602 ± 0.063

Question: For L33E, which abundance fitness is on record?
Answer: -0.685 ± 0.2

Question: Which abundance fitness does the source give for L33W here?
Answer: -0.954 ± 0.14

Question: Which abundance fitness does the source give for L33T here?
Answer: -0.361 ± 0.05

Question: For L33H, which abundance fitness is on record?
Answer: -0.626 ± 0.053

Question: For L33A, which abundance fitness is on record?
Answer: -0.429 ± 0.057

Question: With N34R as the variant, how does the abundance fitness read?
Answer: -0.205 ± 0.053

Question: For N34M, which abundance fitness is on record?
Answer: -0.127 ± 0.068

Question: Which abundance fitness does the source give for N34K here?
Answer: 0.052 ± 0.071

Question: For N34T, which abundance fitness is on record?
Answer: -0.014 ± 0.05

Question: For N34E, which abundance fitness is on record?
Answer: -0.145 ± 0.091

Question: With C50H as the variant, how does the abundance fitness read?
Answer: -0.286 ± 0.05

Question: Which abundance fitness does the source give for C50Q here?
Answer: -0.769 ± 0.08

Question: Which abundance fitness does the source give for C50N here?
Answer: -0.46 ± 0.092

Question: With C50I as the variant, how does the abundance fitness read?
Answer: -1.08 ± 0.12

Question: Which abundance fitness does the source give for C50W here?
Answer: -1.11 ± 0.1

Question: Which abundance fitness does the source give for C50G here?
Answer: -0.727 ± 0.059

Question: For C50V, which abundance fitness is on record?
Answer: -0.791 ± 0.044

Question: For S27W, which abundance fitness is on record?
Answer: -0.198 ± 0.067

Question: For S27M, which abundance fitness is on record?
Answer: -0.14 ± 0.076

Question: For S27K, which abundance fitness is on record?
Answer: -0.082 ± 0.073

Question: For S27T, which abundance fitness is on record?
Answer: -0.044 ± 0.057

Reference: the Human Domainome abundance scans (Beltran et al. 2025)
